Experimental data published in doi:10.1101/2020.05.14.097071.
Like-named read-outs stand apart in the source and are kept apart here.

What was measured:
[1] = molecular target: monomeric RAD51 (HumRadA22)
[2] = molecular target: monomeric RAD51 (HumRadA22); test: ITC
[3] = molecular target: monomeric RAD51 (HumRadA22); test: fluorescence polarisation

| Substance | Kd [1] | Kd [2] | Kd [3] |
| --- | --- | --- | --- |
| BRC4 with deletion of Lys1530 (peptide) | 4100 nM | – | – |
| BRC8-2(S2056A) (peptide) | – | 5 nM | – |
| GB1-BRC4 (peptide) | 21 nM | 11 nM | 38 nM |
| GB1-BRC4-5 (peptide) | – | – | 2100 nM |
| GB1-BRC7-8 (peptide) | – | – | 11000 nM |
